The values that follow come from patent US20120201746A1.

This test deals with Neonatal Fc receptor (FcRn) on CHO-FcRnGPI cells. The test can be described thus: flow cytometry on CHO-FcRnGPI cells, pH 6.4. In general terms: A flow cytometer gives signals particle by particle.
Sequence of Neonatal Fc receptor (FcRn) on CHO-FcRnGPI cells (P55899 24-297, chain 1 of 2): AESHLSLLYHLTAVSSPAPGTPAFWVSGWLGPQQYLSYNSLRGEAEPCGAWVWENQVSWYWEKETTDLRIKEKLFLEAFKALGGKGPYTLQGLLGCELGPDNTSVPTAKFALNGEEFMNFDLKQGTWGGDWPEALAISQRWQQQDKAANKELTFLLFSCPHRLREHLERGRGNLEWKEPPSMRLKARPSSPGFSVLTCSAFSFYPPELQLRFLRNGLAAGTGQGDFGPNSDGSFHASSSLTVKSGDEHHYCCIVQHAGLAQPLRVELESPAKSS
Sequence of Neonatal Fc receptor (FcRn) on CHO-FcRnGPI cells (P61769 21-119, chain 2 of 2, further chain): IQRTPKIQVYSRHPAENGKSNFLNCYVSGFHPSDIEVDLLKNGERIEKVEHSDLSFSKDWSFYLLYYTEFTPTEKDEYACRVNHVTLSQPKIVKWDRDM

For orientation: EC50 means the concentration that produces a half-maximal response. A low value points to greater potency. Control mAb (antibody) yielded an EC50 of 50.4 nM.
